Results: PMC12285236, “Xylanolytic metabolism is regulated by coordination of transcription factors XynR and XylR in extremely thermophilic Caldicellulosiruptorales”

T1: XylR (Anaerocellum (f. Caldicellulosiruptor) …, UniProt Q44406 1-399)
T1 sequence: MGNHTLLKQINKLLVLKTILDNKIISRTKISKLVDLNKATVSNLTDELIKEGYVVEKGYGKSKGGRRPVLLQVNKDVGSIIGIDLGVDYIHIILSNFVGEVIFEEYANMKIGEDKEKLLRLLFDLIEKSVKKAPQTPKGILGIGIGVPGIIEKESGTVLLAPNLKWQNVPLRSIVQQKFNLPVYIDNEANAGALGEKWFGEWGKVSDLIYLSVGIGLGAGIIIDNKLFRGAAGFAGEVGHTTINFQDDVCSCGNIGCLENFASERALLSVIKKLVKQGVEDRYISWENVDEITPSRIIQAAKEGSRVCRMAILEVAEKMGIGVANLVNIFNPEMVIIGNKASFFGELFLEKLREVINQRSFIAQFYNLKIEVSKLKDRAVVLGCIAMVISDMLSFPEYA

B1: xylA BLI probe (dsDNA)
DNA 1: ATTATAGATATTAGTTTGTTTAATAAACAAACTAAGTACACGTACT
DNA 2: AGTACGTGTACTTAGTTTGTTTATTAAACAAACTAATATCTATAAT
B2: xynUVW FP probe (dsDNA)
DNA 1: TAAATATATAAATAGTTTGTTTAAGAAATAAACCAAAAGGAGTGATT
DNA 2: AATCACTCCTTTTGGTTTATTTCTTAAACAAACTATTTATATATTTA

Assays:
[1] = target: XynR (Anaerocellum (f. Caldicellulosiruptor) bescii) (UniProt B9MPD1); assay: fluorescence polarization; conditions: 20 mM Tris-HCl, 100 mM NaCl, 0.02% Tween 20, pH 7.4; FP: 5 nM probe, 30 nM-3 uM protein, 22 C; BLI: 100 nM DNA immobilized on streptavidin sensors
XylR [2] = target: T1, XylR; assay: BLI; 20 mM Tris-HCl, 100 mM NaCl, 0.02% Tween 20, pH 7.4; FP: 5 nM probe, 30 nM-3 uM protein, 22 C; BLI: 100 nM DNA immobilized on streptavidin sensors; conditions: protein: recombinant; tags: C-terminal 6xHis; chain copies: 2; label: 5' biotin on strand 1; blunt
XylR [3] = target: T1, XylR; assay: fluorescence polarization; Hill coefficient <1; 20 mM Tris-HCl, 100 mM NaCl, 0.02% Tween 20, pH 7.4; FP: 5 nM probe, 30 nM-3 uM protein, 22 C; BLI: 100 nM DNA immobilized on streptavidin sensors; conditions: protein: recombinant; tags: C-terminal 6xHis; chain copies: 2; label: 5' 6-FAM on strand 1; blunt

Molecule | Kd [1] [nM] | also measured
ATTTTCATGAAATCGCTTTCCTATCTAA / TTAGATAGGAAAGCGATTTCATGAAAATA [xynMNC FP probe] | 150 | –
ATTGACTAGTAAACGCTTACGATATATT (double strand) [XDL FP probe] | 161 | –
TAATAATCGAAATCGCTTACAATTCCTG (double strand) [xynR-xylB FP probe] | 172 | –
TGAGGTTAGAAAGCGGTTTCAAGCAATT (double strand) [xyl3A FP probe] | 169 | –
B1 | – | binding result (XylR [2]): binds
B2 | – | Kd (XylR [3]): 165 nM
